One assay has as its target mouse CTLA-4 protein (mouse, UniProt P09793 36-161). As to the kind of experiment: ELISA. A general note: An ELISA detects its analyte on a solid surface through an enzyme-linked reagent.
The next assay has as its target Mouse CTLA4 (mouse, UniProt P09793 36-161). As to the kind of experiment: ELISA.

Residue numbers refer to the chain shown, from its start.

A word on the IC50: it is the point on the concentration scale where inhibition reaches its midpoint.

B1: 9D9 DMAb original (antibody)
chain 1: EAKLQESGPVLVKPGASVKMSCKASGYTFTDYYMNWVKQSHGKSLEWIGVINPYNGDTSYNQKFKGKATLTVDKSSSTAYMELNSLTSEDSAVYYCARYYGSWFAYWGQGTLITVSTAKTTPPSVYPLAPGCGDTTGSSVTLGCLVKGYFPESVTVTWNSGSLSSSVHTFPALLQSGLYTMSSSVTVPSSTWPSQTVTCSVAHPASSTTVDKKLEPSGPISTINPCPPCKECHKCPAPNLEGGPSVFIFPPNIKDVLMISLTPKVTCVVVDVSEDDPDVQISWFVNNVEVHTAQTQTHREDYNSTIRVVSTLPIQHQDWMSGKEFKCKVNNKDLPSPIERTISKIKGLVRAPQVYILPPPAEQLSRKDVSLTCLVVGFNPGDISVEWTSNGHTEENYKDTAPVLDSDGSYFIYSKLNMKTSKWEKTDSFSCNVRHEGLKNYYLKKTISRSPGK
chain 2: DIVMTQTTLSLPVSLGDQASISCRSSQSIVHSNGNTYLEWYLQKPGQSPKLLIYKVSNRFSGVPDRFSGSGSGTDFTLKISRVEAEDLGVYYCFQGSHVPYTFGGGTKLEIKRADAAPTVSIFPPSSEQLTSGGASVVCFLNNFYPKDINVKWKIDGSERQNGVLNSWTDQDSKDSTYSMSSTLTLTKDEYERHNSYTCEATHKTSTSPIVKSFNRNEC
Molecule B1 yielded a 50% inhibitory concentration (IC50) with mouse CTLA-4 protein of 0.0434 µg/mL.

B2: 9D9 standard (antibody)
chain 1: B1 chain 1
chain 2: B1 chain 2
In the assay with Mouse CTLA4, B2 gave an IC50 of 0.0442 µg/mL.

B3: 9D9 DMAb mod #3 (antibody)
chain 1: B1 chain 1 with A2V, K3Q, E6Q
chain 2: B1 chain 2
On to B3, for which, in the assay with mouse CTLA-4 protein, the IC50 came out at 0.0361 µg/mL.

B4: 9D9 DMAb mod #2 (antibody)
chain 1: B1 chain 1 with I113V, T117S
chain 2: B1 chain 2
The molecule B4 had an IC50 in the assay with mouse CTLA-4 protein of 0.0409 µg/mL.

B5: 9D9 DMAb mod #4 (antibody)
chain 1: B1 chain 1 with A2V, K3Q, E6Q, I113V, T117S
chain 2: B1 chain 2
Molecule B5 had a 50% inhibitory concentration (IC50) in the assay with mouse CTLA-4 protein of 0.0367 µg/mL.
